Test results: IntAct's records for PubMed 35512704

B1: Mothers against decapentaplegic homolog 4 (Homo sapiens), Q13485 (parent)
chain: MDNMSITNTPTSNDACLSIVHSLMCHRQGGESETFAKRAIESLVKKLKEKKDELDSLITAITTNGAHPSKCVTIQRTLDGRLQVAGRKGFPHVIYARLWRWPDLHKNELKHVKYCQYAFDLKCDSVCVNPYHYERVVSPGIDLSGLTLQSNAPSSMMVKDEYVHDFEGQPSLSTEGHSIQTIQHPPSNRASTETYSTPALLAPSESNATSTANFPNIPVASTSQPASILGGSHSEGLLQIASGPQPGQQQNGFTGQPATYHHNSTTTWTGSRTAPYTPNLPHHQNGHLQHHPPMPPHPGHYWPVHNELAFQPPISNHPAPEYWCSIAYFEMDVQVGETFKVPSSCPIVTVDGYVDPSGGDRFCLGQLSNVHRTEAIERARLHIGKGVQLECKGEGDVWVRCLSDHAVFVQSYYLDREAGRAPGDAVHKIYPSAYIKVFDLRQCHRQMQQQAATAQAAAAAQAAAVAGNIPGPGSVGGIAPAISLSAAAGIGVDDLRRLCILRMSFVKGWGPDYPRQSIKETPCWIEIHLHRALQLLDEVLHTMPIADPQPLD
partner: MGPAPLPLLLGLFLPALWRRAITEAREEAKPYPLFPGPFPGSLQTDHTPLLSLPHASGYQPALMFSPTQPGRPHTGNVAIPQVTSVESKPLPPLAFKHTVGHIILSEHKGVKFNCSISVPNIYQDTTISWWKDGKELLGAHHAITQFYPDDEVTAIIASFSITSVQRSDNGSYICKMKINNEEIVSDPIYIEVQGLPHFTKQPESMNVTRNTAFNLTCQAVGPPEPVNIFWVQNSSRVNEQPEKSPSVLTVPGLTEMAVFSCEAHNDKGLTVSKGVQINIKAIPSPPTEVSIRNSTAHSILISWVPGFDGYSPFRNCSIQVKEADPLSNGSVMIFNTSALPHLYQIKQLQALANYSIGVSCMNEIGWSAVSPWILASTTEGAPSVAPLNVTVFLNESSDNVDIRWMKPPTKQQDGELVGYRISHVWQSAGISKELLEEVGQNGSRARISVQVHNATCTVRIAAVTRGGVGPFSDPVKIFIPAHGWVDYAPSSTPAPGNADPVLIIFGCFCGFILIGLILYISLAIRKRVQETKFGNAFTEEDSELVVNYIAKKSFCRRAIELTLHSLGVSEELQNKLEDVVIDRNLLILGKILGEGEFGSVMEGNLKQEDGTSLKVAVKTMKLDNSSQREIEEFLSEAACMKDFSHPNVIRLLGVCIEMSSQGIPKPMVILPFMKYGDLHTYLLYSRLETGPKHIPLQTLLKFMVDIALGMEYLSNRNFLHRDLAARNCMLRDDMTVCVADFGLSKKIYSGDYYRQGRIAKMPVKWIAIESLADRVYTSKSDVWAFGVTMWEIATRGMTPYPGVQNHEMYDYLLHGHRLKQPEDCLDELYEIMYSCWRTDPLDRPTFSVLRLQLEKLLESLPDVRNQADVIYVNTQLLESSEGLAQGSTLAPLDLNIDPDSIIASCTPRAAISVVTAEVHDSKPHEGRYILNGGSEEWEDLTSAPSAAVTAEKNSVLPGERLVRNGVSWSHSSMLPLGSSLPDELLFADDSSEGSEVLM
B2: Mothers against decapentaplegic homolog 4 (Homo sapiens), Q13485 (parent)
chain: B1 chain
partner: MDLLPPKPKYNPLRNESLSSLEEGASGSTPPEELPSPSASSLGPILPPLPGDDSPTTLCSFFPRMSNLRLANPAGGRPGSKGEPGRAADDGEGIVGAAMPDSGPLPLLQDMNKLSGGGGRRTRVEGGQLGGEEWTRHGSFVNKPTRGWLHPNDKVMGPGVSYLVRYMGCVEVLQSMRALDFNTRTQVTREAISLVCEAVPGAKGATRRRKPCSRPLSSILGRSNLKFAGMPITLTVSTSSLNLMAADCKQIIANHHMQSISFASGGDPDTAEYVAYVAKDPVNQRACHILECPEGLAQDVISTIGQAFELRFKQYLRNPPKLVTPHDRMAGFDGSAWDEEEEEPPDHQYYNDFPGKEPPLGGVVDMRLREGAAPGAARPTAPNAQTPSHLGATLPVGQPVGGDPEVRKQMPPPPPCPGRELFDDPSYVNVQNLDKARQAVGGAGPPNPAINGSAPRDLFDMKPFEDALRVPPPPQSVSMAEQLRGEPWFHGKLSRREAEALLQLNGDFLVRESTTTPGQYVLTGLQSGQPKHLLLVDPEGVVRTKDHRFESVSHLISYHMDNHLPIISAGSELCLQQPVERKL
B3: Mothers against decapentaplegic homolog 4 (Homo sapiens), Q13485 (parent)
chain: B1 chain
partner: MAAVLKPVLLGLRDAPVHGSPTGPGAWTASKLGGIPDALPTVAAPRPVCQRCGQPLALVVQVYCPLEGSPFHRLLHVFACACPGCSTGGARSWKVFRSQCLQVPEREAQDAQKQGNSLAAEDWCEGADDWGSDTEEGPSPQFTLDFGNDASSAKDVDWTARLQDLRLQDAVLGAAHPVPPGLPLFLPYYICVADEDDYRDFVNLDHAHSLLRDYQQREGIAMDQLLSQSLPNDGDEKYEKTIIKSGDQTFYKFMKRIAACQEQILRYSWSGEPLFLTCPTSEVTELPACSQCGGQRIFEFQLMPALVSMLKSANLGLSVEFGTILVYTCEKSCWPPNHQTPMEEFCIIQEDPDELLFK
B4: Mothers against decapentaplegic homolog 4 (Homo sapiens), Q13485 (parent)
chain: B1 chain
partner: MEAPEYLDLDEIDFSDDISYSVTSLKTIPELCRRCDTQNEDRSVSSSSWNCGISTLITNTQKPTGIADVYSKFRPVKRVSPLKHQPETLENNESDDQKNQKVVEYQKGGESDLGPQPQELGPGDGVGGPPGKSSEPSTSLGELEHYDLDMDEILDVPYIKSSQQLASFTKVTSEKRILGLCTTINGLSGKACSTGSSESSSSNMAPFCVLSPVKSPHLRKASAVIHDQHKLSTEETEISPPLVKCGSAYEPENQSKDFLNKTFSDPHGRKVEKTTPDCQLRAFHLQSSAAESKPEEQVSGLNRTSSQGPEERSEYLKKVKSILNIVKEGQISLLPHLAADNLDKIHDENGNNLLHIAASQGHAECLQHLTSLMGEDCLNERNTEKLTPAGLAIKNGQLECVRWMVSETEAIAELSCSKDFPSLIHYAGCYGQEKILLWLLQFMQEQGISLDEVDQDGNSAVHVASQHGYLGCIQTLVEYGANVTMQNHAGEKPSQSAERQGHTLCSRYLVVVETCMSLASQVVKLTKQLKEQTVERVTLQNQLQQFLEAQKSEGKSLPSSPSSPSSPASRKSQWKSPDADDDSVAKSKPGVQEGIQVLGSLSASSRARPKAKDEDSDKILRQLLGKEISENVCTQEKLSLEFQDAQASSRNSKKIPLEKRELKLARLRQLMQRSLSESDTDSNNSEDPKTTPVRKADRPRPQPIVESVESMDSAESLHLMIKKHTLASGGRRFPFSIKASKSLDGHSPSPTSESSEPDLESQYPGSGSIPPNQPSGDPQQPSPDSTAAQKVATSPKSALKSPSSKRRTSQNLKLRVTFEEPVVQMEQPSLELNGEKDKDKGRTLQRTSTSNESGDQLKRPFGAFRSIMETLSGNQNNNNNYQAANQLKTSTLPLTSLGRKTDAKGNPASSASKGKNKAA

Variants of: B1
Settings: with mertk_human MERTK

effect of a mutation on the interaction	Variant
with no effect	R361H

Variants of: B2
Settings: with shc1_human SHC1, P29353

effect of a mutation on the interaction	Variant
with no effect	R361H

Variants of: B2
Settings: with shc1_human SHC1, P29353
Remark: another data set of the same source

effect of a mutation on the interaction	Variant
with no effect	R361C

Variants of: B2
Settings: with shc1_human SHC1, P29353
Remark: another data set of the same source

effect of a mutation on the interaction	Variant
with no effect	G386D

Variants of: B2
Settings: with shc1_human SHC1, P29353
Remark: another data set of the same source

effect of a mutation on the interaction	Variant
with no effect	D351H

Variants of: B3
Settings: with pdd2l_human PDCD2L

effect of a mutation on the interaction	Variant
with no effect	R361H

Variants of: B3
Settings: with pdd2l_human PDCD2L
Remark: another data set of the same source

effect of a mutation on the interaction	Variant
with no effect	R361C

Variants of: B3
Settings: with pdd2l_human PDCD2L
Remark: another data set of the same source

effect of a mutation on the interaction	Variant
with no effect	D351H

Variants of: B3
Settings: with pdd2l_human PDCD2L
Remark: another data set of the same source

effect of a mutation on the interaction	Variant
with no effect	G386D

Variants of: B4
Settings: with sncap_human SNCAIP

effect of a mutation on the interaction	Variant
with no effect	R361C

Variants of: B4
Settings: with sncap_human SNCAIP
Remark: another data set of the same source

effect of a mutation on the interaction	Variant
with no effect	R361H

Variants of: B4
Settings: with sncap_human SNCAIP
Remark: another data set of the same source

effect of a mutation on the interaction	Variant
with no effect	D351H
